The record followed here is WO2022034912A1 (dated 2022).

Assay [1] deals with T1, human TRPV2 (transient receptor potential cation channel, subfamily V, member 2) (human, UniProt Q9Y5S1 1-764).
T1 sequence: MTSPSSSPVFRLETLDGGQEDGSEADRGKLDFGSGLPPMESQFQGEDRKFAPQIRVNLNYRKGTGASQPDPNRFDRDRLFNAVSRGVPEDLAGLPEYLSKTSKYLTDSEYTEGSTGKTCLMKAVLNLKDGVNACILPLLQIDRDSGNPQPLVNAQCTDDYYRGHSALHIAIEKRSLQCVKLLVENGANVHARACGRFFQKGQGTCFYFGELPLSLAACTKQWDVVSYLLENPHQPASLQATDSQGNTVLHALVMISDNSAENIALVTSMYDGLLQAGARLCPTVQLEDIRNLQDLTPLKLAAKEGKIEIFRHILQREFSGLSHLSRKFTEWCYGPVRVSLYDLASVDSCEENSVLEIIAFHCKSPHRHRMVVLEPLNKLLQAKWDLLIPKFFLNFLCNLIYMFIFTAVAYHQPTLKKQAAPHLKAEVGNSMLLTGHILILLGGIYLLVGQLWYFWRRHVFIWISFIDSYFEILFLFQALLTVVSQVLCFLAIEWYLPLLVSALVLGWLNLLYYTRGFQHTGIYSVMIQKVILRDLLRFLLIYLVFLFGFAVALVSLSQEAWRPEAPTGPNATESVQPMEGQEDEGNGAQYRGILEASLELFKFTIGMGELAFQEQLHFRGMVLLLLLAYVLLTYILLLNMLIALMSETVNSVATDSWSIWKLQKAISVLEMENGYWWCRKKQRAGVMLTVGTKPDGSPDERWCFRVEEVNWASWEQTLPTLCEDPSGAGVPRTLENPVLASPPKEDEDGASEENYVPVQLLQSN
Put plainly: cell-based or functional assay.

The target in assay [2] is T2, mouse TRPV2 (mouse, UniProt Q9WTR1 1-756).
T2 construct: whole, on cells; In the Western blot solubilised from the cells; also called mTRPV2; mTRPV2-expressing HEK293 cells
T2 sequence (looked up): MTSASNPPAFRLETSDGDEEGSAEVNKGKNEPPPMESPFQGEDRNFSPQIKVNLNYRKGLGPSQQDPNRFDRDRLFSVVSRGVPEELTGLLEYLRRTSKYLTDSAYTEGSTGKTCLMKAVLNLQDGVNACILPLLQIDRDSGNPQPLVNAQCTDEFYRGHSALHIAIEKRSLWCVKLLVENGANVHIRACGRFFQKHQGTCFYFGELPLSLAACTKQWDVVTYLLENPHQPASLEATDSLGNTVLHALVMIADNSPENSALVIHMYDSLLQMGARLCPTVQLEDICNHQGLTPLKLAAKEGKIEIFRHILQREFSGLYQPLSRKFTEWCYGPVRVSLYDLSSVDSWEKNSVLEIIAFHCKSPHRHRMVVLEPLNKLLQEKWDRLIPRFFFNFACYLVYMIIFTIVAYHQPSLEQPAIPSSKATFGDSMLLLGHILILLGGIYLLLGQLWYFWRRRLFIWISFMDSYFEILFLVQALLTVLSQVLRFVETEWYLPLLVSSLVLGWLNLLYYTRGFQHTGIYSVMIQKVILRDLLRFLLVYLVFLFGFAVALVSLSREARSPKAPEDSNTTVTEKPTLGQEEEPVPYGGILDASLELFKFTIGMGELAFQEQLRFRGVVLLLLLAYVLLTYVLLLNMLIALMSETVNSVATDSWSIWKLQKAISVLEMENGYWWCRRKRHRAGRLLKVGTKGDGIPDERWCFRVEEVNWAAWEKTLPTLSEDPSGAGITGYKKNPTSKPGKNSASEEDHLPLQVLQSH
The assay can be described thus: Western blot of solubilised mTRPV2-expressing HEK293 cells. In general terms: Immunoblotting shows a protein as a band on a membrane.

Assay [3] addresses T3, hTRPV2 extracellular domain-biotin (572-609) (human, biotin added with the lysine residue at the C-terminus).
T3 construct: Synthetic polypeptide, analyte in the SPR measurement; also called hTRPV2 extracellular domain (572-609)
T3 peptide: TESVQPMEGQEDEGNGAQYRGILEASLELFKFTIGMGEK
The assay can be described thus: SPR (Biacore T200), antibody captured on anti-mouse IgG(Fc), peptide 10-1000 nM as analyte, 1:1 model. Background: Surface plasmon resonance follows binding to a sensor surface in real time, without labels.

Assay [4] deals with T4, biotinylated hTRPV2 (hTRPV2 full-length expression vector with Myc-Biotinylation-His tag, expressed in HEK293 … (human, UniProt Q9Y5S1 1-764, biotinylated on the tag (Myc-Biotin-His tag))).
T4 construct: also called biotinylated hTRPV2-expressing HEK293 cells; not shown: Myc-Biotinylation-His tag
T4 sequence: T1 sequence
Put plainly: flow cytometry on hTRPV2-expressing 293 cells, purified IgG. Background: A flow cytometer gives signals particle by particle.

Positions count from the first letter of the chain named.

B1: anti-human TRPV2 IgG antibody mAb002 (02a001) (antibody, V domains shown)
VH: QVQLKQSGPVLVAPSQSLSITCTVSGFSLTSFGIHWVRQPPGKGLEWLGVIWSGGITHYNSALMSRLSISKDNSKSQVFLKMNSLQTDDTAMYYCAKLYSHPHAMDYWGQGTSVTVSS
VL: DIVMTQAAPSVPVTPGESVSISCRSSKSLLHSNGITYLYWFLQRPGQSPQLLIYRMSNLASGVPDRFSASGSGTAFTLRISRVEAEDVGVYYCMQHLEYPLTFGAGTKLELK
notes: Mouse IgG: VH joined to mouse CH1,2,3 and VL to CK, made in CHO-K1 cells, purified on Protein A; also called anti-hTRPV2 antibody (mAb002)
For orientation: Kd means a measure of binding affinity in units of concentration. Higher therefore signals a looser complex. For B1, in assay [1], the “IC50 of the inhibition of Ca 2+ influx into hTRPV2-expressing HEK293 cells (Cal520 fluorescence, cannabidiol and probenecid stimulation)” value came to 8.9 nM. In addition, the binding result in assay [2] is listed as “no binding (tested: 500-fold dilution)”. In assay [3], binding was put at a Kd of 19.2 nM.

B2: anti-human TRPV2 IgG antibody mAb001 (01a033) (antibody, V domains shown)
VH: QVQLKESGPDLVQPSQTLSLTCTVSGFSLTTYGVHWVRQPPGKGLEWVGTMGWDGKKYYNSALKSRLSISRDTSKNQVFLKLSSLQTEDTAMYYCTRDGGYTWFAYWGQGTLVTVSA
VL: NIVMTQSPSSLAVSAGEKVTMSCKSSQSLLNSRTRKNYLAWYQQKPGQSPKLLIYWASTRESGVPDRFTGSGSGTDFTLTISSVQAEDLAVYYCKQSYNLFTFGGGTKLEIK
notes: Mouse IgG: VH joined to mouse CH1,2,3 and VL to CK, made in CHO-K1 cells, purified on Protein A; also called anti-hTRPV2 antibody (mAb001)
In the case of B2, in assay [3], the Kd is 188 nM.

B3: humanized mAb002 antibody (VH14+VL1) (antibody, V domains shown)
VH: QVQLQESGPGLVKPSQSLSLTCTVSGFSLTSFGIHWIRQPPGKGLEWIGVIWSGGITHYNSALMSRVSISKDTSKNQVFLKLSSVTAADTAMYYCAKLYSHPHAMDYWGQGTLVTVSS
VL: DIVMTQSPLSLPVTPGEPASISCRSSKSLLHSNGITYLYWYLQKPGQSPQLLIYRMSNLASGVPDRFSGSGSGTDFTLKISRVEAEDVGVYYCMQHLEYPLTFGGGTKLEIK
notes: Full-length human IgG made in Expi293F cells
For the molecule B3, the binding result in assay [4] is “binds”.

B4: humanized mAb002 antibody (VH15+VL1) (antibody, V domains shown)
VH: B3 VH with F79S
VL: B3 VL
notes: as for B3
In the case of B4, in assay [4], the binding result was “binds”.

B5: humanized mAb002 antibody (VH16+VL1) (antibody, V domains shown)
VH: B3 VH with K13A, S17T
VL: B3 VL
notes: as for B3
Regarding B5, in assay [4], the binding result is “binds”.

B6: humanized mAb002 antibody (VH13+VL1) (antibody, V domains shown)
VH: B3 VH with Q5K, E6Q, K13A, L20I, V67L
VL: B3 VL
notes: as for B3
For the molecule B6, the binding result in assay [4] is listed as “binds”.

B7: humanized mAb002 antibody (VH12+VL1) (antibody, V domains shown)
VH: B3 VH with T73N, L82M, S83N
VL: B3 VL
notes: as for B3
Regarding B7, the binding result in assay [4] is given as “binds”.
